# Reference: the domain aggregation screens of Martell et al. (2025)
# Experiment: soluble fraction after stress (log2 fold change); higher = more stays soluble; pooled small domains, quantitative proteomics
# Conditions: stress: pH 4
# Procedure, shortened: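 Values are on a log2 scale, where higher means more of the domain stayed soluble after pH 4 stress. They are fold changes in the soluble amount of each domain from pooled custom libraries, measured by high-throughput quantitative proteomics. The fold change is taken to reflect aggregation propensity.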
row,Sequence,soluble fraction (log2)
1,HMKNNYQYIVDQIKQLILDGELIVGDRLPSERDLSEMYQVSRASVREALKALETIGLLESRHGGGNYIVNH,-0.68
2,HMKNQIGFKIKNARRKASISQADLSAKLGISSSYLNLIESGKRNVNVDLLLKVSDVLNIELKDLSK,-0.437
3,HMKNTYTVVSGDTLWGIASRKLGGGSNWTKIYDANAATIESVANRRRGGRGSDHGHWIYPGTVLTI,0.216
4,HMKNYYRILGLNIDAEYEEIKAAYRILAQRHHPDKGGAAAEFRLIQEAYDILSNPLTKRNYDADLLATLN,-1.08
5,HMKPDMAVIVGSRTLTFATTTDRQILVLRTDGTMVNRLSMKAGETRTITLPAGVYIVNGKKIIV,0.22
6,HMKPFSLESYKAFVVKRLGLFPETSSAQMHDWLKEEYPDFPLITPRTVYNFVMKIRQDYGIAKV,-0.732
7,HMKPFVVVPIDQVRVGMFIQLDLGWMQHPFPVGSFRVASEAQIDTLRSLDLESVRYLPAKSDPAFQQP,-0.986
8,HMKPGNFILDLLRTYGQKGTSAQNLMSSSRMFNFSENLIRVTLSRLAARGLIENFERGHYRLAE,0.0573
9,HMKPGTIVTGVVVDIKSDVVVVNAGLKSEGIVPIEQFRNDRGELEVAIGDEVKVALDSLENGFGETVLSRE,-1.21
10,HMKPQKRYLFEEVLTFLKHNSEKSFNYKQLGAAMEISNESDRFTLLETLEELKHQGFVVEKEIGKYQAKE,0.37
11,HMKPRVTVVTLGVDDLERAVRFYAEGLGFPTEGIVGREFEFGAVAFFDMQPGLRLALWPRRSLAHDSGLP,-0.328
12,HMKPSISKIYALWGVLQRSGKIKSQDKAALDAFVRKYTGVDHVKWLDESQARKIIEILKQMIA,0.104
13,HMKPSKTDEAEYWLMERLEEGPQPAGDLIRIGEEFGYTPKILRDAGERFNMERYKDGLDHWMWKLPN,0.349
14,HMKPVTNHTVKFYVDDVLWKTVTVKHGGNVRLADLPMSDGKTFVGWSESVVNVTKDLTVFALFS,-0.478
15,HMKPVYNKVEIPRGGEYALVLSDGTKVHLNSMSSLRFPVAFTTGKREVELQGEAYFEVSKTGQPFIVNV,0.22
16,HMKQGKGIIVVDGKLMPEDFNVATLSLDEVESITVLKGEKAVALYGEKAKEREVLLITTQKG,-0.316
17,HMKQKAEVIFVSKTIMEALSKGVRLTPENLKSETELPIDDFYARLKELIDNGSVVESRENGESYLEAGN,-0.938
18,HMKQLNKRQDDILSLAEKEGYVSVENLAKTFTVSQQTIRRDINYLSDHEFLVRTHGGAFYSSG,-0.288
19,HMKQNNYATKKELNFFVSRLISLLSYRDFFNPIEKKESMINNIEAIFTRSSLTSQELRTLHGIISNLVE,-1.27
20,HMKQPNSYGSVHKLPGKRRKPWRVRKTSGWLLDEQSGTVKQQYITIGYYATKQEALIALADYNENP,-0.434
21,HMKQQFTREQIIELMYKAYKKHKKKLNRVEIKKEKALPSYVTIGRYLNETSIKKIWEIVLSEKE,-0.388
22,HMKQVEVESVIGKSEEAANSILTKAGLKVNIGYKEDSSKPTDTVLSQDPAPGEKVDEGTTVTIVVNNYKKP,-0.127
23,HMKRANGTGSVFKLNGKRRNPWVARVTQGFDDKGRQKYVNLGYYKTKREAENELLSYNSNPYDAN,-0.0271
24,HMKREWKDDDPTVPAGWKVAWTTTSDNRAKIAFMSPDKKIFHSRKSALQHMLAAGTYAQSDIEKMTKGL,0.377
25,HMKRFSPPSIEEVDSYIREKGYTVDAERFVNFYESKGWYVGKNKMKNWRAAVATWQKEDNKRN,-0.0455
26,HMKRGDAYASEMIARLKEAHLIVMEGTLYPLLTRLKNDGLLSYRWEESTQGPPRKYYSITPVG,-0.081
27,HMKRITGHLTEKNKKWYAVINLYDTDGKRKEKWQGLNLDANKGNKREAEHRLRQILDQYNTD,0.125
28,HMKRITKKQLSQQLEQFFSSQPGKKLTLKDIFRALHLDTHPLKMLAMDIMEEMAWDDFITKKGENAYQLNT,-0.725

row,Sequence,soluble fraction (log2)
1,HMKRKAIDQSWQPDKEAIEILSKAGVNEEFIKEEIPEFILYWSEKGEESDTWNSKFIAQVRRQWAKTQH,0.248
2,HMKRQATLQIGSKRFGMDDLYFKFTVPFEDSEKLGTATIEAYNLSPATRNSIKKGMPIILNAGYEGDI,-0.103
3,HMKRTMVEAAMVAKLFNLTVRRIQQLTQDGVLTTELVDKKRRYDLLLTVQKYIAYLQEKVAK,≥ 0.43
4,HMKRVVFFNGISWYHRTKELLDDMTTKYGKKGGFATPEEAEKSYWEYEERYKDRQRELQVAYLKN,-0.913
5,HMKSDEGEIKKIVEEIISKNASVVEDYKKGKEVALQFLVGQGMKATKGSANPELLKKIILENI,-0.105
6,HMKSDVVFDITDGTVKAMLKFNRSDVTILNNDGKNYYLFTANGEFTFKYQDGSGEYYEKTVYVDWLEDE,-1.56
7,HMKSFIWKQYTVQITKKNVKNTNVRIKRDNPHVILMSIPYSATYKAGLLALETPHIRHWLDNYERKLKQ,0.0309
8,HMKSIEVPNLINMTLRKAKIELIDNEFNLDTVIYEYNPNIREGRVSLQIPESGTILKSGSNISIHISKGIP,-0.32
9,HMKSIPKIKWNSTLENIKNFEYQDNFFESKEMYDLLVSFYKYGFVIIKNIPTNNNFIVKFANSIGS,0.121
10,HMKSISMANGNVQLRINGVLASSLEVAALSPEDIKRVEYHDNPGLRYGEGIDIVLDYITIKRT,-1.16
11,HMKSISMSKLRHLLQLYVQGRSKKLISEQTGIARNTLKKYIKEFSEAGLSLEALLALSDKELEDLFVK,0.282
12,HMKSLPQKLLAYLESQGLTRDEAGEFVKQGLKITSNDVDQIQLLLANTEVIDIKLQEFIAQK,-0.549
13,HMKSLVDLEISIVKKDMNYFVLPKINGEPLLMERISASEYKDFQLGKLSKEDIFQKHYPDYSEENIKNGRG,0.19
14,HMKSSISKNWNPSKDAIEILTRAGIDQEFLENLIPEFVIYWIERSDVLISYNSKFIEHARLKWAQHTAEIQ,-0.106
15,HMKSTPMYATAIVNIRSKAGTDSEILGKLNPSEEISVISSENGWSKVSYNGKEAYISSNYLSNAKP,0.22
16,HMKSVFQPIYEDLLSRIQDGRLLPGMPLPSENALAVQYGTSRPTIRRAIGLLVEKSLVIRQPGIGSIVAS,-0.493
17,HMKTALQENVRAYRLERKWTQQALAEALEVSVGAVSKWESGVSRPELETLMRLAELFGVSTDALLGF,-1.09
18,HMKTAWDELNEVIEAYRGQESALIEVLHKAQEIMGYLPRDVQEAIAEGLHVPLNKVYGVVSFYHHFSV,-0.204
19,HMKTERTVRVQDQHLHYTLEEKPIKNVNLRIRPDGSVYVSAPFGTSRTLIDDFVASKSKQILAIQQAQSAM,0.22
20,HMKTGIGIVEANGGLRLRSQASTSSDVLSTAHNGDNVVVIRQVGNWYLVNYNLKIGYMHSDYITFKE,-1.3
21,HMKTGNIIAVSLVWKGKYYMIRMFFPSAARPSRADVQTEIEKVYPGSKLSSFSVSDYEPGQPLLQV,-0.146
22,HMKTGTTGLIGEIGVVKKALTPEGKVFVHGELWRAVSKTASPEGTLVQVIKINNLVLEVEKV,0.0324
23,HMKTILEKDQRLAKYISYLIKRKRLSPEQVIEHLKTDDHGYEKYPKSINTIYAAIDKGLIPSVTRQDM,≥ 0.43
24,HMKTKMTPELTTVIEAQIQKEWSPEQISGWLKKTHPVSVSHQRIYQHIQADRQQGGTLHQHLRQAK,-0.2
25,HMKTKTFSPGEIVKIQTRDKSWQGTILESHDPEIILLKLTTGYNIGIRENEIINAKVIEKSKKDVKDAE,0.176
26,HMKTKTIMSTGAREDLVKMINEYYYSKNYIITEDNRIYNTKTEKFMDDLSVKFYRGRWKVIRN,0.0289
27,HMKTLDATQRLKLNGEGIIVFNFGKYVDQPVVEIFKKERGYFAWMMSKDFSQQVKNIITKIHNEEILGK,-0.344
